Data reported in patent US20250066499A1 (SUNSHINE GUOJIAN PHARMACEUTICAL SHANGHAI, published 2025).

Tests used:
CD73-ND-Y132A = target: T1, CD73-ND-Y132A (human, UniProt P21589 27-317); experiment: ELISA, biotinylated antigen on streptavidin plate
T1 construct: Alanine mutant of CD73-ND
T1 sequence: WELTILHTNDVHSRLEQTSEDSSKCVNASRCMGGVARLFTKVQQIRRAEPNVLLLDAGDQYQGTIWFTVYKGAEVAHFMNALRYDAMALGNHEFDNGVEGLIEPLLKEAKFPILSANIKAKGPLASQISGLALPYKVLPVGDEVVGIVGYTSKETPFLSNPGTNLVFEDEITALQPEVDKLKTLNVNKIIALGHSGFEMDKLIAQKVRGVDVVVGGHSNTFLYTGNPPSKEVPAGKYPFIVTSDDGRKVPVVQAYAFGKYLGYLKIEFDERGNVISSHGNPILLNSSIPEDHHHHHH
Description: (§1) The ELISA plates were coated with SA protein diluted to 1.5 μg/mL in coating buffer (50 mM carbonate coating buffer, pH 9.6) and incubated overnight at 4° C. The supernatant was discarded, and the plates were washed three times with PBST. Then, 5% skimmed milk powder prepared with PBS was added for blocking and the plates were incubated for 2 h at 37° C. After washing the plates once with PBST, CD73-biotin protein (prepared by biotinylating CD73-His protein according to the EZ-Link NHS-Biotin Reagent instructions) was diluted to 0.5 μg/mL and added at 100 μL/well for incubation at room temperature for 1 h. The plates were washed three times with PBST, and the prepared murine-derived monoclonal antibodies against human CD73 were serially diluted with 1% BSA buffer prepared with PBST and added to the ELISA plates at 100 μl/well. The plates were incubated at 37° C. for 1 h. After washing the plates three times with PBST, HRP-labeled goat anti-mouse IgG secondary antibody was added and the plates were incubated for 30 min at 37° C. After washing the plates three times with PBST, the residual droplets were patted dry on absorbent paper as much as possible. Then, 100 μl of TMB color developing solution was added to each well, and the plates were incubated in the dark at room temperature for 5 min for color development. Subsequently, 50 μl of 2M H₂SO₄ stop solution was added to each well to terminate the substrate reaction. The OD values were read at 450 nm using a multimode microplate reader to analyze the binding ability of the tested antibodies to the target antigen human CD73-His.
(§2) Referring to the experimental method in Example 3, the affinity of 48A11-HuV33 for various mutant proteins of CD73-ND was determined. The SA protein was diluted to 1 μg/mL for coating the ELISA plates, and the biotinylated CD73 protein (CD73-biotin) was used at a concentration of 0.1 μg/mL.

CD73-ND-his [1] = target: T2, CD73-ND-his (human, UniProt P21589 27-317); experiment: ELISA, biotinylated antigen on streptavidin plate
T2 construct: Biotinylated and captured on streptavidin in the ELISA
T2 sequence: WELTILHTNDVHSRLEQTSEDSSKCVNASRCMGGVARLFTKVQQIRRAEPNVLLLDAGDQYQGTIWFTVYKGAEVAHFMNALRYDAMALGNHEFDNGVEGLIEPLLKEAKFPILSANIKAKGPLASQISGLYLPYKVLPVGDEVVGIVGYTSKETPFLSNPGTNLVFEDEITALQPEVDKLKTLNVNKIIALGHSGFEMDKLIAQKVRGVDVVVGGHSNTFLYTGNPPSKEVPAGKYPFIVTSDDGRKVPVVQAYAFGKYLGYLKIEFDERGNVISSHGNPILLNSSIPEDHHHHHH
Description: as §1, §2

CD73-ND-L138A = target: T3, CD73-ND-L138A (human, UniProt P21589 27-317); experiment: ELISA, biotinylated antigen on streptavidin plate
T3 construct: Alanine mutant of CD73-ND
T3 sequence: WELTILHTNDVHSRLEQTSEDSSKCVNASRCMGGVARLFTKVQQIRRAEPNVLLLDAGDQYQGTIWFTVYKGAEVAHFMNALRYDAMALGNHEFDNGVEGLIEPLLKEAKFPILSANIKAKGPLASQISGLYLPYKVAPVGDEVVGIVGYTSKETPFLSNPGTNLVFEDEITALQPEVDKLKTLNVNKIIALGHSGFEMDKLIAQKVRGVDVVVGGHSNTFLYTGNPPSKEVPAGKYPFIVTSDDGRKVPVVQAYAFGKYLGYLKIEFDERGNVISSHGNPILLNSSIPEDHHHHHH
Description: as §1, §2

CD73-ND-Y135A = target: T4, CD73-ND-Y135A (human, UniProt P21589 27-317); experiment: ELISA, biotinylated antigen on streptavidin plate
T4 construct: Alanine mutant of CD73-ND
T4 sequence: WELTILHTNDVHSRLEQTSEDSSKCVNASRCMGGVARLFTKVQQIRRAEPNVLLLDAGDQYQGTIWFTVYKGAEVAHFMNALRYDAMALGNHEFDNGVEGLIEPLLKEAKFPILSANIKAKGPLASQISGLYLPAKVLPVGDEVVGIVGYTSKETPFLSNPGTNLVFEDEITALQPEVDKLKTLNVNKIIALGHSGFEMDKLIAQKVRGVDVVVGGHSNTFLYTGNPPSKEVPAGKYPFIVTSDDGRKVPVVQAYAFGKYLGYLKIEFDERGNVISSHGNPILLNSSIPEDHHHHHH
Description: as §1, §2

CD73-ND-K136A = target: T5, CD73-ND-K136A (human, UniProt P21589 27-317); experiment: ELISA, biotinylated antigen on streptavidin plate
T5 construct: Alanine mutant of CD73-ND
T5 sequence: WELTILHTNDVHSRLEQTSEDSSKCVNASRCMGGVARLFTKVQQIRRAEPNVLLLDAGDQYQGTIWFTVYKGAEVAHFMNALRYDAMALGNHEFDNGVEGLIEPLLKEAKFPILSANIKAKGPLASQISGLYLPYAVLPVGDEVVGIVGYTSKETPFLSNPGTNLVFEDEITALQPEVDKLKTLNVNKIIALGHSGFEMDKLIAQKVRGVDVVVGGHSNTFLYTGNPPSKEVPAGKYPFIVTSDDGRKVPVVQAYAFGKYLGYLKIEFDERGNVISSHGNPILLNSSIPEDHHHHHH
Description: as §1, §2

CD73-ND-his [2] = target: T2, CD73-ND-his; experiment: ELISA; decline multiple of EC50 against CD73-ND
Description: as §1, §2

CD73-ND-V186A = target: T6, CD73-ND-V186A (human, UniProt P21589 27-317); experiment: ELISA; decline multiple of EC50 against CD73-ND
T6 construct: Alanine mutant of CD73-ND
T6 sequence: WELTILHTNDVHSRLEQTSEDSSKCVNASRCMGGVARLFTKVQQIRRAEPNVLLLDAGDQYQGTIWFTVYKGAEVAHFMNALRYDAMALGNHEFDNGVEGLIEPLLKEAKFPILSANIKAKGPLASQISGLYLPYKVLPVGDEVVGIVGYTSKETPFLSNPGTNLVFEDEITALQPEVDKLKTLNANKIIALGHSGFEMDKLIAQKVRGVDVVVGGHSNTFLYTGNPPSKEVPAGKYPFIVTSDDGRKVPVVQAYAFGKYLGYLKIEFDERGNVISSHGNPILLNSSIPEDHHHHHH
Description: as §1, §2

B1: 48A11-HuV33 (antibody, human IgG4, V domains shown)
VH: QVQLVQSGAEVKKPGASVKVSCKASGYTFTSYWMHWVRQAPGQGLEWIGEINPSIGRTNYNEKFKSRVTLTRDTSTSTAYMELSSLRSEDTAVYYCARRVYGTMDYWGQGTLVTVSS
VL: DIQMTQSPSSLSASVGDRVTITCKASQDINSYLSWFQQKPGKSPKLLIYRANIWVDGVPSRFSGSGSGQDYTFTISSLQPEDIATYYCLQYDELYTFGQGTKVEIK
notes: Humanized
Q: Which EC50 (CD73-ND-Y132A) does the source give for B1 here?
A: The EC50 was 10.5 nM.

Q: What about the EC50 (CD73-ND-his [1]) of the same binder?
A: The EC50 was 0.152 nM.

Q: And the EC50 (CD73-ND-L138A)?
A: The EC50 was 0.182 nM.

Q: And the EC50 (CD73-ND-Y135A)?
A: The EC50 was 0.165 nM.

Q: What about the EC50 (CD73-ND-K136A) of the same binder?
A: The EC50 was 0.145 nM.

Q: What about the “Ratio(EC50)” value (CD73-ND-his [2]) of the same binder?
A: Its value is 0.8 fold.

Q: What about the “Ratio(EC50)” value (CD73-ND-V186A) of the same binder?
A: The value was 1.4 fold.
